# B1: human PA28β (natural protein)
# chain: not shown
# notes: C-terminal residue printed as Y239; Stood in the experiments as a subunit of m1; also called PA28 β1, β2, β3 (its copies in the heptamer); source: E. coli BL21 (DE3), co-expressed with PA28α, purified as the PA28αβ heteroheptamer
# B2: human PA28α (natural protein)
# chain: MAMLRVQPEAQAKVDVFREDLCTKTENLLGSYFPKKISELDAFLKEPALNEANLSNLKAPLDIPVPDPVKEKEKEERKKQQEKEDKDEKKKGEDEDKGPPCGPVNCNEKIVVLLQRLKPEIKDVIEQLNLVTTWLQLQIPRIEDGNNFGVAVQEKVFELMTSLHTKLEGFHTQISKYFSERGDAVTKAAKQPHVGDYRQLVHELDEAEYRDIRLMVMEIRNAYAVLYDIILKNFEKLKKPRGETKGMIY
# notes: C-terminal residue printed as Y249; Stood in the experiments as a subunit of m1; also called PA28 α1, α2, α3, α4 (its copies in the heptamer); source: E. coli BL21 (DE3), co-expressed with PA28β, purified as the PA28αβ heteroheptamer
# B3: bovine iCP subunit α4 (natural protein)
# chain: not shown
# notes: 20S proteasome subunit α4, bovine; Stood in the experiments as a subunit of m2; source: purified from bovine spleen as a subunit of the iCP
# Key:
# Settings in all cases: both partners purified
# bovine iCP subunit α6 = target: T1, bovine iCP subunit α6 (bovine, UniProt Q3T0X5 1-263); experiment: cross-linking; XL-MS: PA28αβ and iCP mixed 10:1, 37 °C 30 min, 0.25 mM BS3 on ice 2 h, glycerol gradient, trypsin digest, pLink2; E-value threshold 1.00E-02
# T1 construct: 20S proteasome subunit α6, bovine; Stood in the experiments as a subunit of m2; source: purified from bovine spleen as a subunit of the iCP
# T1 sequence (Q3T0X5 whole entry): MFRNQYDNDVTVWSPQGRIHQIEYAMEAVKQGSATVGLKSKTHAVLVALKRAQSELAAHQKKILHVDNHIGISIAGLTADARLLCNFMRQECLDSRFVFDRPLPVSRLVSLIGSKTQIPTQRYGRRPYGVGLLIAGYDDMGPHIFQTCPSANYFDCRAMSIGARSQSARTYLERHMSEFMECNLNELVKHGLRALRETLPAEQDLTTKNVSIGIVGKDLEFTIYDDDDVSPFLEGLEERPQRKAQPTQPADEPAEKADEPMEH
# bovine iCP subunit α4 = target: B3; experiment: cryo-EM structure; PA28αβ and iCP mixed at a molar ratio of 10:1, 37 °C 30 min, cross-linked with 0.1% glutaraldehyde at 4 °C for 2 h, glycerol gradient; single-capped (4.1 Å) and double-capped (4.2 Å) complexes and free iCP (3.3 Å) from one data set
# Chain of bovine iCP subunit α4 (Q3ZBG0 whole entry): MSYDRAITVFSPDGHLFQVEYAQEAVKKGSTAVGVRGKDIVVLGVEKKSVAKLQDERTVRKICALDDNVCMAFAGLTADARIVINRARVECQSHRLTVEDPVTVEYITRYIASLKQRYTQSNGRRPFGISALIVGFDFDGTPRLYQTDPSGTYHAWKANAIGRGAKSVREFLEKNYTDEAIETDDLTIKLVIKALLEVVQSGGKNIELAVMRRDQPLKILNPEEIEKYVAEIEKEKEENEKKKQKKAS
# bovine iCP subunit α3 = target: T2, bovine iCP subunit α3 (bovine, UniProt Q3ZCK9 1-261); experiment: as above
# T2 construct: 20S proteasome subunit α3, bovine; Stood in the experiments as a subunit of m2; source: purified from bovine spleen as a subunit of the iCP
# T2 sequence (Q3ZCK9 whole entry): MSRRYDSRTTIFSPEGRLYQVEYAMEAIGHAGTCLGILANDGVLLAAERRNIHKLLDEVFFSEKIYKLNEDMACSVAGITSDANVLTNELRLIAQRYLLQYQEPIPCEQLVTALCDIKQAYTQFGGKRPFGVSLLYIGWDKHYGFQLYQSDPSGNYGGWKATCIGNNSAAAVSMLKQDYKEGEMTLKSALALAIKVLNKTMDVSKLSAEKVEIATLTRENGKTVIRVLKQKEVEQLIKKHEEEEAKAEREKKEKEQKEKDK
# human PA28α = target: B2; experiment: as above
# human PA28β = target: B1; experiment: as above
binding result (bovine iCP subunit α3),binding result (human PA28α),Binder,other results
binds,–,B1,binding result (bovine iCP subunit α6): binds; binding result (bovine iCP subunit α4): binds
binds,–,B2,–
–,binds,B3,–
–,binds,"bovine iCP subunit α2 (natural protein, UniProt Q3T0Y5 1-234, looked up, 20S proteasome subunit α2, bovine; Stood in the experiments as a subunit of m2; source: purified from bovine spleen as a subunit of the iCP) MAERGYSFSLTTFSPSGKLVQIEYALAAVAGGAPSVGIKAANGVVLATEKKQKSILYDERSVHKVEPITKHIGLVYSGMGPDYRVLVHRARKLAQQYYLVYQEPIPTAQLVQRVASVMQEYTQSGGVRPFGVSLLICGWNEGRPYLFQSDPSGAYFAWKATAMGKNYVNGKTFLEKRYNEDLELEDAIHTAILTLKESFEGQMTEDNIEVGICNEAGFRRLTPTEVKDYLAAIA",binding result (human PA28β): binds
–,binds,"bovine iCP subunit α5 (natural protein, UniProt Q5E987 1-241, looked up, 20S proteasome subunit α5, bovine; Stood in the experiments as a subunit of m2; source: purified from bovine spleen as a subunit of the iCP) MFLTRSEYDRGVNTFSPEGRLFQVEYAIEAIKLGSTAIGIQTSEGVCLAVEKRITSPLMEPSSIEKIVEIDAHIGCAMSGLIADAKTLIDKARVETQNHWFTYNETMTVESVTQAVSNLALQFGEEDADPGAMSRPFGVALLFGGVDEKGPQLFHMDPSGTFVQCDARAIGSASEGAQSSLQEVYHKSMTLKEAIKSSLIILKQVMEEKLNATNIELATVQPGQNFHMFTKEELEEVIKDI",–
